For eight molecules, Duffy selectivity, binding result and Kd results are on record in patent publication EP2386565A2 (Cambridge Enterprise Ltd., dated 2000).

Assay [1] has as its target T1, Duffy Antigen Receptor for Chemokines (DARC) (human, UniProt Q16570 1-336).
T1 construct: whole, on cells
T1 sequence (looked up): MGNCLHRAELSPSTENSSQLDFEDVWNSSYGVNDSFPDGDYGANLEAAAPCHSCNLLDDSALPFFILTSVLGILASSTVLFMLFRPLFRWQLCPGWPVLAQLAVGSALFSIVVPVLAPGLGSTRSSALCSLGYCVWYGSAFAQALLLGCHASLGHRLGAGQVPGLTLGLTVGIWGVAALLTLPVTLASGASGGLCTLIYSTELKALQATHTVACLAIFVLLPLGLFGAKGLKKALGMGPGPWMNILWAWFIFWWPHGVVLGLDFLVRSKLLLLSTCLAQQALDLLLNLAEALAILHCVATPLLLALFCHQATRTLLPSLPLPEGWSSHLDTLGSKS
The assay can be described thus: ka for binding to red blood cells divided by ka for binding to THP-1 cells.

Assay [2] deals with T1, Duffy Antigen Receptor for Chemokines …. The experiment in a line: Table 18, DARC binding; ns = not significantly different from control.
For assay [3] the target is unchanged. The assay can be described thus: competition binding analysis using red blood cells; given as affinity.
The target is the same in assay [4]. The assay can be described thus: Duffy binding; kind of constant not named.
In a further assay the target is T2, CCR4 (human, UniProt P51679 1-360).
T2 construct: whole, on cells
T2 sequence (looked up): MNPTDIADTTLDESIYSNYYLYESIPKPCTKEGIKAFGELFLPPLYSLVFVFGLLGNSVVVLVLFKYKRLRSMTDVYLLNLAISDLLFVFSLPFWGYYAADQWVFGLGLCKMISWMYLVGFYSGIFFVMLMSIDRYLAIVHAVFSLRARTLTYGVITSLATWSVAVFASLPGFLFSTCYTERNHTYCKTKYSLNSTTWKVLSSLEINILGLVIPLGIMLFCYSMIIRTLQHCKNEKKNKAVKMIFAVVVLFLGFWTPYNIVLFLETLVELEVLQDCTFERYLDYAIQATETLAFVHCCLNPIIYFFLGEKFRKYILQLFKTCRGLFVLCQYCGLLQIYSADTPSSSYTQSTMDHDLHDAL
The experiment in a line: biotin-labeled peptide on receptor-expressing cell lines, 125I-streptavidin.

Another assay has as its target T3, CCR1 (human, UniProt P32246 1-355).
T3 construct: whole, on cells
T3 sequence (looked up): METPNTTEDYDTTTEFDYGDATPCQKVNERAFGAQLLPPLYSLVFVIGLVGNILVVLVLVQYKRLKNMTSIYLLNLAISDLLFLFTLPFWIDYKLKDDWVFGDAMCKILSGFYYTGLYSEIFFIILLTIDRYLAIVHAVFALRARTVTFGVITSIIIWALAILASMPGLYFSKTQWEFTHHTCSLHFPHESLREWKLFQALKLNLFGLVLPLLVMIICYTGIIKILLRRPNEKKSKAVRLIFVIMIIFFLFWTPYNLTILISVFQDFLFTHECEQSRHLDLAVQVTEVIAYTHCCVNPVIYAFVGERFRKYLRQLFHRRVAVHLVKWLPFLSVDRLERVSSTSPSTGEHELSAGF
Described as above.

The target of the next assay is T4, CCR5 (human, UniProt P51681 1-352).
T4 construct: whole, on cells
The description is as above.

For another assay, the target named is T5, CCR2 (human, UniProt P41597 1-374).
T5 construct: whole, on cells
Described as above.

The target of the next assay is T6, CXCR1 (human, UniProt P25024 1-350).
T6 construct: whole, on cells
T6 sequence (looked up): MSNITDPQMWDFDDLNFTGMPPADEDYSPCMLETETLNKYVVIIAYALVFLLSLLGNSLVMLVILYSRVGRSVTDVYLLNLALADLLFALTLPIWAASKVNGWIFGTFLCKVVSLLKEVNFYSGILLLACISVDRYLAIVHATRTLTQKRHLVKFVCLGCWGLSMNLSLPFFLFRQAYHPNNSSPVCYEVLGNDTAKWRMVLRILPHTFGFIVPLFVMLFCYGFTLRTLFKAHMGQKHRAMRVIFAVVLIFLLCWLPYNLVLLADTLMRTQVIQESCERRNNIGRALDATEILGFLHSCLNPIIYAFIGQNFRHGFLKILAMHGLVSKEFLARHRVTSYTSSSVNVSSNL
The description is as above.

A further assay has as its target T7, CXCR2 (human, UniProt P25025 1-360).
T7 construct: whole, on cells
T7 sequence (looked up): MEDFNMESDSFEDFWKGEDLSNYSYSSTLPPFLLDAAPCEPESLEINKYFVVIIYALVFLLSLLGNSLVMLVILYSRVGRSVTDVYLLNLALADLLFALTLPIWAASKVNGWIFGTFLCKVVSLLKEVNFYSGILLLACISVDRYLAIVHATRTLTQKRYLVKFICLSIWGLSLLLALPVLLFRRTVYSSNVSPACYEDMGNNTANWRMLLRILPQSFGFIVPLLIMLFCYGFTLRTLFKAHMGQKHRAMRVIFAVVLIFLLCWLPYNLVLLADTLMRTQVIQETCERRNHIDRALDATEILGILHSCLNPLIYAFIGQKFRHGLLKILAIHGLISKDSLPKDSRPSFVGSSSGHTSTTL
The description is as above.

For a further assay, the target named is T8, CXCR4 (human, UniProt P61073 1-352).
T8 construct: whole, on cells
The description is as above.

The target in the next assay is T9, CCR3 (human, UniProt P51677 1-355).
T9 construct: whole, on cells
T9 sequence (looked up): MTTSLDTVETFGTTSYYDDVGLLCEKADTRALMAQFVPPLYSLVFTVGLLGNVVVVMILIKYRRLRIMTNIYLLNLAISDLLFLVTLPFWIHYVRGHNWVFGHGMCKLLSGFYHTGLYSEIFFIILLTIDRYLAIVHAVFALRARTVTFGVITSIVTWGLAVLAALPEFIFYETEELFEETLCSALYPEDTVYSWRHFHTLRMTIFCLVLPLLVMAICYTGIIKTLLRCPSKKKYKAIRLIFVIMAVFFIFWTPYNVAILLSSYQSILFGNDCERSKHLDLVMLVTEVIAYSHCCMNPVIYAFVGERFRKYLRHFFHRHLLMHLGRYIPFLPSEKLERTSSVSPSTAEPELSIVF
The assay is described as above.

In assay [5] the target is T1, Duffy Antigen Receptor for Chemokines …. The assay can be described thus: estimated ka for binding to red blood cells divided by average inhibitory ED50 in THP-1 migration.
Assay [6] has the same target. The experiment in a line: DARC binding on red blood cells; printed as Duffy affinity.

No end group written: not given here. *: point of attachment. Biotin = O=C1N[C@H]2[C@H](CS[C@H]2CCCCC(=O)*)N1

T4 sequence (P51681 whole entry): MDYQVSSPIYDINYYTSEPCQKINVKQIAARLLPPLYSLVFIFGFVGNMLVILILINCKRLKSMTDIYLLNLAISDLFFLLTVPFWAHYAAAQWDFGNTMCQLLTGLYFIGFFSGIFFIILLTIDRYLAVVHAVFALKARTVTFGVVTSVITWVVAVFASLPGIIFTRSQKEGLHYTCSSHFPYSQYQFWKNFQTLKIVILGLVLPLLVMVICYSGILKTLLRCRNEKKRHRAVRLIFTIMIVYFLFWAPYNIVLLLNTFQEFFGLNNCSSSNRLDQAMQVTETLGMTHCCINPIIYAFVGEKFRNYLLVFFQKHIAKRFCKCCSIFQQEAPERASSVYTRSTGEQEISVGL
T5 sequence (P41597 whole entry): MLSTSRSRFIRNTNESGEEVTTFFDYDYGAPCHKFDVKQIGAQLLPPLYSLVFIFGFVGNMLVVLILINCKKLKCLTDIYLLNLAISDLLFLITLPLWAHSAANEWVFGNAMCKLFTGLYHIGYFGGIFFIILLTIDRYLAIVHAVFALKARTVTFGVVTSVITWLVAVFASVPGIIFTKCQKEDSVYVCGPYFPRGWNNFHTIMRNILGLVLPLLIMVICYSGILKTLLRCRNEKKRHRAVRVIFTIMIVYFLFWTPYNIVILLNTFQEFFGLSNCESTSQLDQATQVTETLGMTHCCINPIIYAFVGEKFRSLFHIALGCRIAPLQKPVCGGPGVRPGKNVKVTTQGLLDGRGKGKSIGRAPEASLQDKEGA
T8 sequence (P61073 whole entry): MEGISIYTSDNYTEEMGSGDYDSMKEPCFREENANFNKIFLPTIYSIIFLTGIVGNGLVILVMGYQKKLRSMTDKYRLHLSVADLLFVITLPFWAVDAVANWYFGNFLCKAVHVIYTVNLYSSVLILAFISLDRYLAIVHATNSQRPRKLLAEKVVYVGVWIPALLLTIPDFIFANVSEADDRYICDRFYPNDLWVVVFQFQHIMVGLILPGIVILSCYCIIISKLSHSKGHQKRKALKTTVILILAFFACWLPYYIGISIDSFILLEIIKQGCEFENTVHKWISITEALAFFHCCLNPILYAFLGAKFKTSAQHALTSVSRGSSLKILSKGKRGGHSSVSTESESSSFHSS

B1: Pep2(1-16)[IL8] (peptide)
peptide: ELRVIESGPHCANTEI
notes: also called Pep2[IL8]
In assay [1], B1 returned a Duffy selectivity of less than 1 ratio.

B2: CSKPGV (peptide)
peptide: CSKPGV
For the molecule B2, the binding result in assay [2] is given as “no binding”.

B3: DYFETSSQC (peptide)
peptide: DYFETSSQC
Regarding B3, the binding result in assay [2] is reported as “no binding”.

B4: Peptide 2(1-15)[MCP-1] (peptide)
peptide: SYRRITSSKCPKEAV
notes: also called Pep2[MCP1]; Pep2(1-15)[MCP1]
Regarding B4, the results for the Kd in [3] and in assay [4] were less than 0.5 µM and 100 µM, respectively. The molecule further returned a Duffy selectivity in assay [1] of 0.18 ratio.

B5: N-terminal biotin conjugate of the sequence n'-CLDPKQKWIQC-c' (peptide)
peptide: Biotin-CLDPKQKWIQC
modifications: cysteine pairing not given here
notes: also called biotinylated peptide
With B5, the Kd with CCR4, with CCR1, in the assay with CCR5, with CCR2, in the assay with CXCR1 and in the assay with CXCR2 was greater than 10 µM in each case. Moreover, the Kd with CXCR4 and in the assay with CCR3 was greater than 10 µM each time.

B6: Leu4Ile11peptide 3(1-12)[MCP-1] (peptide)
peptide: EICLDPKQKWIQ
notes: also called Leu4Ile11pep3; Leu4Ile11peptide 3[MCP-1]
As to B6, in assay [5], the Duffy selectivity is 37.8 ratio.

B7: Peptide 2(1-9)[MCP-1] (peptide)
peptide: SYRRITSSK
In the case of B7, in assay [6], the Kd was roughly 50 µM.

B8: Pep2(1-14)[MIP1α] (peptide)
peptide: DYFETSSQCSKPGV
notes: Called peptide 2(1-15)[MIP1α]; also called Pep2[MIP1α]; peptide 2(1-15)[MIP1-α]
In the case of B8, the Duffy selectivity in assay [1] was greater than 100 ratio.
